Three molecules from patent publication US20040137000A1 (UNITED BIOMEDICAL, published 2004) can be followed below.

Substitutions are numbered along the chain they refer to.

The target of test [1] is T1, recombinant soluble CD4 (rsCD4) (UniProt P01730 26-396, limits assumed).
T1 construct: Bought reagent coated on ELISA plates at 0.25 µg/ml; also called solid-phase rsCD4
Kind of test: ELISA on rsCD4. For orientation: An ELISA detects its analyte on a solid surface through an enzyme-linked reagent.

Test [2] addresses CD4 on the surface of host T cells (HIV receptor complex involving CD4) (UniProt P01730 26-458, limits assumed). Kind of test: cell-based or functional assay.
Test [3] has as its target T1, recombinant soluble CD4 (rsCD4). As to the kind of experiment: ELISA, rsCD4 coated at 0.25 µg/ml. From the text:
Tween® 20 in PBS. Various dilutions of the chimeric antibody and the mouse antibody as the positive control were applied. Detection was with peroxidase conjugated goat anti-human IgG and sheep anti-mouse for chimeric and mouse antibodies respectively. Color was developed with OPD.
Both the chimeric and mouse antibodies provided increases in A₄₉₂ at all concentrations of antibodies when added to the solid-phase rsCD4. This assay confirmed that the cloned and sequenced heavy and light chain variable regions retained the correct recognition site.

B1: deimmunized B4 antibody DIVHv.4/VKv.2 produced by NS0 cells (antibody, human IgG1, V domains shown)
VH: QVQLVQSGAEVKKPGASVKVSCKASGYTFTDYVIHWVRQATGQGLEWIGEIYPGSGSAYSNSKFKDRVTITADKSTNTAYMELRSLRSDDTAVYFCARRGNGTGFAYWGQGTLVTVSS
VL: DIVLTQSPASLAVSPGQRATITCKAGQSVDYDGDSYMNWYQQKPGQPPKLLIYVASNLESGIPSRFSGSGSGTDFTLTINPVEENDTATYYCQQSYKDPLTFGQGTKVEIK
notes: Human IgG1 and human kappa constant regions; NS0 cells; also called DIVHv.4/V v.2
Regarding B1, the “fold reduction in binding compared to the chimeric antibody” value in test [1] is less than 3 fold. Besides, in test [2], the “Antibody Conc (µg/ml) at 50% Inhibition; MT-2 microplaque neutralization, HIV-1 TH036 (PBL), clade E” value was determined as 0.32 µg/mL; the “Antibody Conc (µg/ml) at 50% Inhibition; MT-2 microplaque neutralization, HIV-1 UG029 (PBL), clade A” value was 0.48 µg/mL; the “Antibody Conc (µg/ml) at 50% Inhibition; MT-2 microplaque neutralization, HIV-1 VL135 (PBL), clade B” value stood at 0.3 µg/mL.

B2: chimeric B4 antibody (antibody, human IgG1, V domains shown)
VH: QVQLQQSGPELVKPGASVRMSCKASGYTFTDYVIHWVKQRTGQGLEWIGEIYPGSGSAYSNAKFKDKATLTADKSSNTAYMQLSSLTSEDSAVYFCARRGNGTGFAYWGQGTLVTVSA
VL: B1 VL with P15L, T22S, S64A, T78N, N80H, N85E, T87A, Q104A, V108L, I110L
notes: Fully murine B4 variable regions joined to human IgG1 and human kappa constant regions; also called B4 chimeric antibody; chimeric antibody
B2: the “fold reduction in A492 compared to the original mouse antibody” value in test [3] is 10 fold.

B3: deimmunized B4 antibody DIVHv.4/VKv.3 produced by NS0 cells (antibody, human IgG1, V domains shown)
VH: B1 VH
VL: B1 VL with T101A, Q104P
notes: Human IgG1 and human kappa constant regions; NS0 cells; also called DIVHv.4/V v.3
As to B3, in test [1], the “fold reduction in binding compared to the chimeric antibody” value is 5 fold. Moreover, in test [2], the “Antibody Conc (µg/ml) at 50% Inhibition; MT-2 microplaque neutralization, HIV-1 TH036 (PBL), clade E” value was found to be 0.63 µg/mL; the “Antibody Conc (µg/ml) at 50% Inhibition; MT-2 microplaque neutralization, HIV-1 UG029 (PBL), clade A” value turned out to be 1.1 µg/mL; the “Antibody Conc (µg/ml) at 50% Inhibition; MT-2 microplaque neutralization, HIV-1 VL135 (PBL), clade B” value stood at 0.48 µg/mL.
